Results: article PMC3795039

Assays:
GST-NUP153C (human) = GST-NUP153C (human) (UniProt P49790); assay: pull-down; 0.47 µM GST-NUP153C pre-bound to glutathione-sepharose beads, 0.8 µM his-tagged IN, PD buffer (150 mM NaCl, 25 mM Tris-HCl pH 7.4, 5 mM MgCl2, 5 mM DTT, 0.1% NP-40), BSA 5 µg, 2 h 4°C; Coomassie and anti-his blot
[1] = target: HIV-1 CA-NC fusion protein assembled into tube-like complexes (HIV-1); assay: co-sedimentation; purified tag-free NUP153C or GST incubated with assembled HIV-1 CA-NC complexes, pelleted through a sucrose cushion; Coomassie stain
[2] = target: HIV-1 CA-NC fusion protein assembled into tube-like complexes (HIV-1); assay: co-sedimentation; competition: 4 µM purified WT or mutant NUP153C added to 0.8 µM assembled CA-NC and CPSF6-HA 293T extract; read-out is CPSF6 in the pellet
[3] = target: full length his-tagged wild-type HIV-1 CA (HIV-1 (NL4-3)); assay: pull-down; Ni-NTA beads, 20 µM his-tagged CA or CAN, 0.5 µM purified NUP153C, 25 mM Tris-HCl pH 8.0, 150 mM NaCl, 0.1% NP-40, 1 h room temperature; Coomassie or SYPRO Ruby stain
[4] = target: his-tagged HIV-1 CAN Q63A/Q67A (HIV-1 (NL4-3)); assay: as above
[5] = target: T1, his-tagged HIV-1 CA N-terminal domain (CAN) (HIV-1 (NL4-3)), P12493; assay: as above; details: remark: other sources report otherwise
[6] = target: T1, his-tagged HIV-1 CA N-terminal domain …; assay: pull-down; saturation curves: 3 µl Ni-NTA beads, 0.5 µM purified WT or mutant NUP153C, HIV-1 CAN from 2 µM to 200 µM in half-log steps, 150 mM NaCl, 25 mM Tris-HCl pH 8.0, 0.1% NP-40; percent bound by SYPRO Ruby; one-site saturation fit, Kd at half-maximal binding; details: remark: other sources report otherwise

his-tagged HIV-1 integrase (IN) (enzyme)
percent of input pulled down (GST-NUP153C (human)): 0.85%

recombinant tag-free NUP153C (residues 896–1475) (from UniProt P49790-1 896-1475) (domain or fragment)
percent of input recovered in the pellet [1]: 40% | fold decrease of CPSF6 binding to CA-NC with 4 µM NUP153C [2]: 7 fold | percent of input pulled down [3]: 30% | fold decrease of binding against WT CAN [4]: 1.3 fold

his-tagged FIV integrase (IN) (enzyme)
percent of input pulled down (GST-NUP153C (human)): 5.55%

B1: recombinant tag-free NUP153C (residues 896–1475), P49790-1 896-1475 (domain or fragment)
chain: NSAASSSFKFGVSSSSSGPSQTLTSTGNFKFGDQGGFKIGVSSDSGSINPMSEGFKFSKPIGDFKFGVSSESKPEEVKKDSKNDNFKFGLSSGLSNPVSLTPFQFGVSNLGQEEKKEELPKSSSAGFSFGTGVINSTPAPANTIVTSENKSSFNLGTIETKSASVAPFTCKTSEAKKEEMPATKGGFSFGNVEPASLPSASVFVLGRTEEKQQEPVTSTSLVFGKKADNEEPKCQPVFSFGNSEQTKDENSSKSTFSFSMTKPSEKESEQPAKATFAFGAQTSTTADQGAAKPVFSFLNNSSSSSSTPATSAGGGIFGSSTSSSNPPVATFVFGQSSNPVSSSAFGNTAESSTSQSLLFSQDSKLATTSSTGTAVTPFVFGPGASSNNTTTSGFGFGATTTSSSAGSSFVFGTGPSAPSASPAFGANQTPTFGQSQGASQPNPPGFGSISSSTALFPTGSQPAPPTFGTVSSSSQPPVFGQQPSQSAFGSGTTPNSSSAFQFGSSTTNFNFTNNSPSGVFTFGANSSTPAASAQPSGSGGFPFNQSPAAFTVGSNGKNVFSSSGTSFSGRKIKTAVRRRK
percent of input pulled down [5]: 30% | Kd [6]: 28.3 µM
